From PMC8298264, “Function of cofactor Akirin2 in the regulation of gene expression in model human neutrophil-like HL60 cells” (Bioscience Reports, 2021)

Test system: human HL60 cells
Experiment: SWATH-MS proteomics, differential protein representation, akirin2 KO vs WT HL60 cells
Format: cell-based
Conditions: akirin2 KO vs WT HL60 cells; sheet "Under-represented in KO"
In short: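 Read-out is label-free SWATH-MS protein area, globally normalized to total detected-protein area, with identifications held at 1% FDR against a library from information-dependent acquisition.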

B1: sp¦O43719¦HTSF1_HUMAN (protein, UniProt O43719 2-755, looked up)
17S U2 SnRNP complex …: SGTNLDGNDEFDEQLRMQELYGDGKDGDTQTDAGGEPDSLGQQPTDTPYEWDLDKKAWFPKITEDFIATYQANYGFSNDGASSSTANVEDVHARTAEEPPQEKAPEPTDARKKGEKRKAESGWFHVEEDRNTNVYVSGLPPDITVDEFIQLMSKFGIIMRDPQTEEFKVKLYKDNQGNLKGDGLCCYLKRESVELALKLLDEDEIRGYKLHVEVAKFQLKGEYDASKKKKKCKDYKKKLSMQQKQLDWRPERRAGPSRMRHERVVIIKNMFHPMDFEDDPLVLNEIREDLRVECSKFGQIRKLLLFDRHPDGVASVSFRDPEEADYCIQTLDGRWFGGRQITAQAWDGTTDYQVEETSREREERLRGWEAFLNAPEANRGLRRSDSVSASERAGPSRARHFSEHPSTSKMNAQETATGMAFEEPIDEKKFEKTEDGGEFEEGASENNAKESSPEKEAEEGCPEKESEEGCPKRGFEGSCSQKESEEGNPVRGSEEDSPKKESKKKTLKNDCEENGLAKESEDDLNKESEEEVGPTKESEEDDSEKESDEDCSEKQSEDGSEREFEENGLEKDLDEEGSEKELHENVLDKELEENDSENSEFEDDGSEKVLDEEGSEREFDEDSDEKEEEEDTYEKVFDDESDEKEDEEYADEKGLEAADKKAEEGDADEKLFEESDDKEDEDADGKEVEDADEKLFEDDDSNEKLFDEEEDSSEKLFDDSDERGTLGGFGSVEEGPLSTGSSFILSSDDDDDDI
Fold Change: 0.1732 | Log (Fold Change): -0.7615

B2: sp¦Q9UQE7¦SMC3_HUMAN (protein, UniProt Q9UQE7 1-1217, looked up)
Structural maintenance of …: MYIKQVIIQGFRSYRDQTIVDPFSSKHNVIVGRNGSGKSNFFYAIQFVLSDEFSHLRPEQRLALLHEGTGPRVISAFVEIIFDNSDNRLPIDKEEVSLRRVIGAKKDQYFLDKKMVTKNDVMNLLESAGFSRSNPYYIVKQGKINQMATAPDSQRLKLLREVAGTRVYDERKEESISLMKETEGKREKINELLKYIEERLHTLEEEKEELAQYQKWDKMRRALEYTIYNQELNETRAKLDELSAKRETSGEKSRQLRDAQQDARDKMEDIERQVRELKTKISAMKEEKEQLSAERQEQIKQRTKLELKAKDLQDELAGNSEQRKRLLKERQKLLEKIEEKQKELAETEPKFNSVKEKEERGIARLAQATQERTDLYAKQGRGSQFTSKEERDKWIKKELKSLDQAINDKKRQIAAIHKDLEDTEANKEKNLEQYNKLDQDLNEVKARVEELDRKYYEVKNKKDELQSERNYLWREENAEQQALAAKREDLEKKQQLLRAATGKAILNGIDSINKVLDHFRRKGINQHVQNGYHGIVMNNFECEPAFYTCVEVTAGNRLFYHIVDSDEVSTKILMEFNKMNLPGEVTFLPLNKLDVRDTAYPETNDAIPMISKLRYNPRFDKAFKHVFGKTLICRSMEVSTQLARAFTMDCITLEGDQVSHRGALTGGYYDTRKSRLELQKDVRKAEEELGELEAKLNENLRRNIERINNEIDQLMNQMQQIETQQRKFKASRDSILSEMKMLKEKRQQSEKTFMPKQRSLQSLEASLHAMESTRESLKAELGTDLLSQLSLEDQKRVDALNDEIRQLQQENRQLLNERIKLEGIITRVETYLNENLRKRLDQVEQELNELRETEGGTVLTATTSELEAINKRVKDTMARSEDLDNSIDKTEAGIKELQKSMERWKNMEKEHMDAINHDTKELEKMTNRQGMLLKKKEECMKKIRELGSLPQEAFEKYQTLSLKQLFRKLEQCNTELKKYSHVNKKALDQFVNFSEQKEKLIKRQEELDRGYKSIMELMNVLELRKYEAIQLTFKQVSKNFSEVFQKLVPGGKATLVMKKGDVEGSQSQDEGEGSGESERGSGSQSSVPSVDQFTGVGIRVSFTGKQGEMREMQQLSGGQKSLVALALIFAIQKCDPAPFYLFDEIDQALDAQHRKAVSDMIMELAVHAQFITTTFRPELLESADKFYGVKFRNKVSHIDVITAEMAKDFVEDDTTHG
Fold Change: 0.4375 | Log (Fold Change): -0.359
